Data published in patent US20240000786A1, “COMPOSITION FOR ENHANCING INTRA-CELLULAR NITRIC OXIDE GENERATION” (INSTITUTE OF LIFE SCIENCES, priority 2020, published 2024).

B1: iNOS Peptide-2 (18 mer iNOS peptide) (peptide)
peptide: NQYYGSFKEAKIEEHLAR
notes: 18-residue iNOS-derived peptide, synthesized commercially by China peptides; also called PP2; PP-2
B2: recombinant Nitric oxide synthase interacting protein (NOSIP) (other)
chain: HMTRHGKNCTAGAVYTYHEKKKDTAASGYGTQNIRLSRDAVKDFDCCCLSLQPCHDPVVTPDGYLYEREAILEYILHQKKEIARQMKAYEKQRGTRREEQKELQRAASQDHVRGFLEKESAIVSRPLNPFTAKALSGTSPDDVQPGPSVGPPSKDKDKVLPSFWIPSLTPEAKATKLEKPSRTVTCPMSGKPLRMSDLTPVHFTPLDSSVDRVGLITRSERYVCAVTRDSLSNATPCAVLRPSGAVVTLECVEKLIRKDMVDPVTGDKLTDRDIIVLQRGGTGFAGSGVKLQAEKSRPVMQALE
notes: It was synthesized by GenScript, cloned in pET22b, expressed in E. coli BL21 (DE3) and purified on Ni-NTA and by gel filtration; A His tag is implied but never described; also called rNOSIP; recombinant NOSIP

Key:
[1] = target: B2; assay: ITC, 10 µM iNOS peptide in the chamber, 150 µM rNOSIP in syringe, 25 C
Method: (§1) The predictions were tested for validation by […] (SPR). […] The other 3 peptides (Peptide-1, SEQ ID No: 25), (Peptide3, SEQ ID No: 27), and (peptide-4, SEQ ID No: 28) were less efficient in inhibiting interaction between iNOS and NOSIP as shown in FIG. 2(a). […] NOSIP and iNOS peptide (PP2) binding was measured by titrating 10 μM iNOS peptide in the chamber with 150 μM rNOSIP in syringe at 25° C. Top panel, raw heating power over time; Bottom panel, fit of integrated injection enthalpy over the mole ratio of the reactants.

[2] = target: B2; assay: ITC, 10 µM iNOS peptide in the chamber, 150 µM rNOSIP in syringe, 25 C; ITC, 25 C; 10 µM iNOS peptide in chamber, 150 µM rNOSIP in syringe
Method: as §1

[3] = target: B2; assay: ITC; this row is the reference of the fold change in Table 1
Method: (§2) The 18 mer iNOS peptide (PP2) and small molecules were used for physical association of molecules in calorimetric analysis. The molecular association leads to thermodynamics changes such as Gibb's free energy change (ΔG), entropy change (ΔS), enthalpy change (ΔH) and number of binding sites (N) in interacting solution were investigated by isothermal calorimetry MICROCAL PEQ (Malvern) at 25° C. The sample cell were filled with peptides, small molecules and the reference cell was filled with 25 mM HEPES and 150 mM Sodium chloride, pH=7 and the syringe was filled with NOSIP solution (200 μM). The experiment consisted of multiple injections and each injection contained 1.5 μl of binding solution (recombinant NOSIP solution) with 120 second spacing time between subsequent injections. Sequential titrations were carried out and the sample solution was continuously stirred at 270 rpm by the rotating paddle attached to the syringe needle. Multiple injections of NOSIP made into the sample cell containing interacting solution of peptide and small molecules. The titration curves were analyzed using the analysis software provided with the calorimeter.
The 18 mer iNOS peptide (PP2) and five small molecules were used to analyze physical association in calorimetric analysis. […] The titration curves were analyzed using the analysis software provided with the calorimeter.

[4] = target: B2; assay: ITC (MicroCal PEAQ), peptide in cell, rNOSIP in syringe, 25 C
Method: as §2
The 18 mer iNOS peptide (PP2) and five small molecules were used to analyze physical association in calorimetric analysis. The molecular association leads to thermodynamics changes such as Gibb's free energy change (ΔG), entropy change (ΔS), enthalpy change (ΔH) and number of binding sites (N) in interacting solution were investigated by isothermal calorimetry MICROCAL PEQ (Malvern) at 25° C. The sample cell were filled with peptides, small molecules and the reference cell was filled with 25 mM HEPES and 150 mM Sodium chloride, pH=7 and the syringe was filled with NOSIP solution (200 μM). The experiment consisted of multiple injections and each injection contained 1.5 μl of binding solution with 120 second spacing time between subsequent injections. Sequential titrations were carried out and the sample solution was continuously stirred at 270 rpm by the rotating paddle attached to the syringe needle. Multiple injections of NOSIP made into the sample cell containing interacting solution of peptide and small molecules. The titration curves were analyzed using the analysis software provided with the calorimeter.

[5] = target: T1, recombinant human iNOS oxygenase domain (human, UniProt P35228 82-505); assay: SPR, NOSIP 1000 nM to 62.5 nM over immobilised iNOS in presence of 250 nM iNOS PP2 (competitor), Kinetic-Langmuir analysis (FIG. 2(b))
T1 construct: It was cloned in pET22b, expressed in E. coli BL21 (DE3) and purified on Ni-NTA and by gel filtration; A His tag is implied but never described; In SPR it was immobilised on a GLC chip by amine coupling; also called riNOS; r iNOS
T1 sequence (P35228 other isoform, or with tags, fused parts or gaps limits assumed): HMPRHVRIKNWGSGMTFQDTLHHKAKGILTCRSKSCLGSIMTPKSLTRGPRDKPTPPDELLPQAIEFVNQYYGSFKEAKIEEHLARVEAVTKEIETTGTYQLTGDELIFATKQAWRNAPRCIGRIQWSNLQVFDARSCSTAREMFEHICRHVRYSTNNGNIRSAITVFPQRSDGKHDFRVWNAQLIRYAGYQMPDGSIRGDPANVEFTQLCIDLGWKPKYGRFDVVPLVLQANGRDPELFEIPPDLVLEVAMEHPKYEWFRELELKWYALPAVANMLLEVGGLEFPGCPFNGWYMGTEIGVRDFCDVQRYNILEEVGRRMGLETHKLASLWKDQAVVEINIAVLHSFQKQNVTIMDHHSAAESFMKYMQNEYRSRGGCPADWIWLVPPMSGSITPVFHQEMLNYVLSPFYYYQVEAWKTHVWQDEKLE
Method: FIG. 2 depicts inhibition of iNOS-NOSIP protein interaction by iNOS derived peptides. […] These interactions was inhibited in presence of different iNOS peptides (250 nM) viz; PP1—red line, PP2—sky blue line at bottom of graph, PP3—blue line and PP4—green line.
(§3) Four different iNOS peptides were synthesized commercially by China peptides and iNOS peptides were used for molecular interaction studies with immobilized recombinant iNOS purified protein. The iNOS peptides mediated inhibition of rNOSIP and riNOS protein association in Bio-Rad XPR 36 surface plasmon resonance biosensor instrument. […] 250 nM of iNOS peptides was used for inhibition assay with immobilized ligand(recombinant iNOS) in SPR analysis. Similar condition and concentration of small molecules were used for inhibition of recombinant protein association with immobilized ligand. […] The rNOSIP protein was incubated with iNOS derived peptide/small molecules for 30 minutes in ice for inhibition assay before the SPR application in our study. The molecular interaction was carried out at 20° C. and kinetic parameters were determined, after fitting the association and dissociation curves to a 1:1 (Langmuir)-binding model. An activated channel without immobilized ligand was used to evaluate nonspecific binding. The response curves were also recorded on control surfaces. Results were calculated after subtraction of the control values using the ProteOn Manager software.

[6] = target: T1, recombinant human iNOS oxygenase domain; assay: SPR, iNOS immobilised, rNOSIP pre-incubated 30 min on ice with small molecule CC5 (inhibitor), 20 C, 1:1 Langmuir fit
Method: as §3, with “The” for “The rNOSIP protein was incubated with iNOS derived peptide/small molecules for 30 minutes in ice for inhibition assay before the SPR application in our study. The”, “An activated channel without immobilized ligand was used to evaluate nonspecific binding.” left out
(§4) The five small molecules bind with NOSIP and inhibit the association of recombinant NOSIP and recombinant iNOS. […] The molecular interaction was carried out at 20° C. and kinetic parameters were determined, after fitting the association and dissociation curves to a 1:1 (Langmuir)-binding model. […] The response curves were also recorded on control surfaces. Results were calculated after subtraction of the control values using the ProteOn Manager software. […]

[7] = target: T1, recombinant human iNOS oxygenase domain; assay: SPR, iNOS immobilised, rNOSIP with small molecule CC6; KD ratio against the row rNOSIP + iNOS peptide2
Method: as §3, with “The” for “The rNOSIP protein was incubated with iNOS derived peptide/small molecules for 30 minutes in ice for inhibition assay before the SPR application in our study. The”, “An activated channel without immobilized ligand was used to evaluate nonspecific binding.” left out
as §4

[8] = target: T1, recombinant human iNOS oxygenase domain; assay: SPR, iNOS immobilised, rNOSIP pre-incubated 30 min on ice with iNOS peptide 2 (competitor), 20 C, 1:1 Langmuir fit
Method: as §3, with “The” for “The rNOSIP protein was incubated with iNOS derived peptide/small molecules for 30 minutes in ice for inhibition assay before the SPR application in our study. The”, “An activated channel without immobilized ligand was used to evaluate nonspecific binding.” left out
(§5) The five small molecules bind with NOSIP and inhibit the association of recombinant NOSIP and recombinant iNOS. […] The molecular interaction was carried out at 20° C. and kinetic parameters were determined, after fitting the association and dissociation curves to a 1:1 (Langmuir)-binding model. […] The response curves were also recorded on control surfaces. Results were calculated after subtraction of the control values using the ProteOn Manager software.

[9] = target: T1, recombinant human iNOS oxygenase domain; assay: SPR, iNOS immobilised, rNOSIP with iNOS peptide 2; this row is the reference of the fold change
[10] = target: T1, recombinant human iNOS oxygenase domain; assay: SPR, iNOS immobilised, rNOSIP with small molecule CC13; KD ratio against the row rNOSIP + iNOS peptide2
Method: as §3, with “The” for “The rNOSIP protein was incubated with iNOS derived peptide/small molecules for 30 minutes in ice for inhibition assay before the SPR application in our study. The”, “An activated channel without immobilized ligand was used to evaluate nonspecific binding.” left out
as §4

[11] = target: T1, recombinant human iNOS oxygenase domain; assay: SPR, iNOS immobilised, rNOSIP pre-incubated 30 min on ice with small molecule CC11 (inhibitor), 20 C, 1:1 Langmuir fit
Method: as §3, with “The” for “The rNOSIP protein was incubated with iNOS derived peptide/small molecules for 30 minutes in ice for inhibition assay before the SPR application in our study. The”, “An activated channel without immobilized ligand was used to evaluate nonspecific binding.” left out
as §4

[12] = target: T1, recombinant human iNOS oxygenase domain; assay: SPR (Bio-Rad ProteOn XPR36), iNOS immobilised on GLC chip by amine coupling, NOSIP as analyte, 20 C, 1:1 Langmuir fit
Method: as §3
Manager software was used to fit the data with the Langmuir model describing a 1:1 binding stoichiometry. Ka is the association rate constant, Kd is the dissociation rate constant, and KD is the equilibrium dissociation constant, defined by the Kd/Ka ratio for the analytes—ligand binding.

[13] = target: T1, recombinant human iNOS oxygenase domain; assay: SPR, iNOS immobilised, rNOSIP pre-incubated 30 min on ice with small molecule CC4 (inhibitor), 20 C, 1:1 Langmuir fit
Method: as §3, with “The” for “The rNOSIP protein was incubated with iNOS derived peptide/small molecules for 30 minutes in ice for inhibition assay before the SPR application in our study. The”, “An activated channel without immobilized ligand was used to evaluate nonspecific binding.” left out
as §5

[14] = target: T1, recombinant human iNOS oxygenase domain; assay: SPR, iNOS immobilised, rNOSIP pre-incubated 30 min on ice with small molecule CC13 (inhibitor), 20 C, 1:1 Langmuir fit
Method: as §3, with “The” for “The rNOSIP protein was incubated with iNOS derived peptide/small molecules for 30 minutes in ice for inhibition assay before the SPR application in our study. The”, “An activated channel without immobilized ligand was used to evaluate nonspecific binding.” left out
as §4

[15] = target: T1, recombinant human iNOS oxygenase domain; assay: SPR, iNOS immobilised, rNOSIP with small molecule CC4; KD ratio against the row rNOSIP + iNOS peptide2
Method: as §3, with “The” for “The rNOSIP protein was incubated with iNOS derived peptide/small molecules for 30 minutes in ice for inhibition assay before the SPR application in our study. The”, “An activated channel without immobilized ligand was used to evaluate nonspecific binding.” left out
as §4

[16] = target: T1, recombinant human iNOS oxygenase domain; assay: SPR, iNOS immobilised, rNOSIP with small molecule CC5; KD ratio against the row rNOSIP + iNOS peptide2
Method: as §3, with “The” for “The rNOSIP protein was incubated with iNOS derived peptide/small molecules for 30 minutes in ice for inhibition assay before the SPR application in our study. The”, “An activated channel without immobilized ligand was used to evaluate nonspecific binding.” left out
as §4

[17] = target: T1, recombinant human iNOS oxygenase domain; assay: SPR, iNOS immobilised, rNOSIP with small molecule CC11; KD ratio against the row rNOSIP + iNOS peptide2
Method: as §3, with “The” for “The rNOSIP protein was incubated with iNOS derived peptide/small molecules for 30 minutes in ice for inhibition assay before the SPR application in our study. The”, “An activated channel without immobilized ligand was used to evaluate nonspecific binding.” left out
as §4

[18] = target: T1, recombinant human iNOS oxygenase domain; assay: SPR, iNOS immobilised, rNOSIP pre-incubated 30 min on ice with small molecule CC6 (inhibitor), 20 C, 1:1 Langmuir fit
Method: as §3, with “The” for “The rNOSIP protein was incubated with iNOS derived peptide/small molecules for 30 minutes in ice for inhibition assay before the SPR application in our study. The”, “An activated channel without immobilized ligand was used to evaluate nonspecific binding.” left out
as §4

[19] = target: T1, recombinant human iNOS oxygenase domain; assay: SPR, iNOS immobilised; KD ratio against the row rNOSIP + iNOS peptide2 (= 1)
Method: as §3, with “The” for “The rNOSIP protein was incubated with iNOS derived peptide/small molecules for 30 minutes in ice for inhibition assay before the SPR application in our study. The”, “An activated channel without immobilized ligand was used to evaluate nonspecific binding.” left out
as §4

Binder: B1
-TΔS [1]: 0.459 kcal/mol
N [1]: 0.993
ΔG [1]: -8.61 kcal/mol
ΔH [1]: -9.07 kcal/mol
Kd [2]: 0.493 µM
Fold Change (KD) [3]: 1
-TΔS [4]: -0.1 kcal/mol
Kd [4]: 0.548 µM
ΔG [4]: -8.54 kcal/mol
ΔH [4]: -8.44 kcal/mol

Binder: B2
KD in presence of 250 nM iNOS PP2 [5]: 0.495 µM
Ka in presence of 250 nM iNOS PP2 [5]: 5360
Kd in presence of 250 nM iNOS PP2 [5]: 0.00265
KD (M) in presence of small molecule MCULE-8469877005 (CC5) [6]: 0.000588 M
Fold Change (KD) [7]: 142
KD (M) in presence of iNOS peptide2 [8]: 4.94e-06 M
Fold Change (KD) [9]: 1
Fold Change (KD) [10]: 110
KD (M) in presence of small molecule MCULE-8094061955 (CC11) [11]: 0.000809 M
Kd [12]: 0.00711 µM
koff [12]: 0.000681 s⁻¹
kon [12]: 95700 M⁻¹ s⁻¹
KD (M) in presence of small molecule MCULE-4640800528 (CC4) [13]: 0.00087 M
KD (M) in presence of small molecule MCULE-8395438746 (CC13) [14]: 0.000543 M
Fold Change (KD) [15]: 176
Fold Change (KD) [16]: 119
Fold Change (KD) [17]: 164
KD (M) in presence of small molecule MCULE-3765839647 (CC6) [18]: 0.000704 M
Fold Change (KD) [19]: 0.00144
